Data from patent publication US20040086503A1.

Key:
[1] = target: extracellular domain of IGF-IR (human) (UniProt P08069); experiment: SPR (BIAcore 3000), Protocol 1: antibody captured on protein A, IGF-IR ECD injected
[2] = target: extracellular domain of IGF-IR (human) (UniProt P08069); experiment: SPR (BIAcore 3000), Protocol 2, essentially as Fagerstam et al.

B1: anti-IGF-IR antibody 2.14.3 (antibody, human IgG2, V domains shown)
VH: GPGLVKPSETLSLTCTVSGGSISNYYWSWIRQPAGKGLEWIGRIYTSGSPNYNPSLKSRVTMSVDTSKNQFSLKLNSVTAADTAVYYCAVTIFGVVIIFDYWGQGTLVTVSS
VL: SSLSASVGDRVTFTCRASQDIRRDLGWYQQKPGKAPKRLIYAASRLQSGVPSRFSGSGSGTEFTLTISSLQPEDFATYYCLQHNNYPRTFGQGTEVEIIR
Kd [1]: 0.641 nM

B2: anti-IGF-IR antibody 2.13.2 (antibody, V domains shown)
VH: EVQLLESGGGLVQPGGSLRLSCTASGFTFSSYAMNWVRQAPGKGLEWVSAISGSGGTTFYADSVKGRFTISRDNSRTTLYLQMNSLRAEDTAVYYCAKDLGWSDSYYYYYGMDVWGQGTTVTVSS
VL: DIQMTQFPSSLSASVGDRVTITCRASQGIRNDLGWYQQKPGKAPKRLIYAASRLHRGVPSRFSGSGSGTEFTLTISSLQPEDFATYYCLQHNSYPCSFGQGTKLEIKR
Kd [2]: 1.53 nM | Kd [1]: 3.5 nM

B3: anti-IGF-IR antibody 2.12.1 (antibody, V domains shown)
VH: QAQLVESGGGLVKPGGSLRLSCAASGFTFSDYYMSWIRQAPGKGLEWVSYISSSGSTRDYADSVKGRFTISRDNAKNSLYLQMNSLRAEDTAVYYCVRDGVETTFYYYYYGMDVWGQGTTVTVSS
VL: DIQMTQSPSSLSASVGDRVTFTCRASQDIRRDLGWYQQKPGKAPKRLIYAASRLQSGVPSRFSGSGSGTEFTLTISSLQPEDFATYYCLQHNNYPRTFGQGTEVEIIR
Kd [1]: 7.37 nM

B4: anti-IGF-IR antibody 4.17.3 (antibody, human IgG2, V domains shown)
VH: PGLVKPSETLSLTCTVSGGSISSYYWSWIRQPPGKGLEWIGYIYYSGSTNYNPSLKSRVTISVDTSKNQFSLKLSSVTAADTAVYYCARTYSSSFYYYGMDVWGQGTTVTVSS
VL: GDRVTITCRASQSISTFLNWYQQKPGKAPKLLIHVASSLQGGVPSRFSGSGSGTDFTLTISSLQPEDFATYYCQQSYNAPLTFGGGTKVEIK
Kd [1]: 13 nM
